# Assay results taken from patent publication US7070776.
# Legend:
# CD28 receptor (human) = CD28 receptor (human) (UniProt P10747); test: cell-based or functional assay
# B7 antigen (human) [1] = target: B7 antigen (human) (UniProt P33681); test: direct immunofluorescence flow cytometry, Daudi Burkitt's lymphoma cells, no unlabeled BB-1
# B7 antigen (human) [2] = target: B7 antigen (human) (UniProt P33681); test: direct immunofluorescence flow cytometry, Jijoye cells
# B7 antigen (human) [3] = target: B7 antigen (human) (UniProt P33681); test: direct immunofluorescence flow cytometry, Raji cells, after preincubation with unlabeled (cold) BB-1
# B7 antigen (human) [4] = target: B7 antigen (human) (UniProt P33681); test: direct immunofluorescence flow cytometry, T51 cells
# B7 antigen (human) [5] = target: B7 antigen (human) (UniProt P33681); test: direct immunofluorescence flow cytometry, Raji cells
# B7 antigen (human) [6] = target: B7 antigen (human) (UniProt P33681); test: direct immunofluorescence flow cytometry, Raji Burkitt's lymphoma cells, no unlabeled BB-1
# B7 antigen (human) [7] = target: B7 antigen (human) (UniProt P33681); test: direct immunofluorescence flow cytometry, Daudi cells, after preincubation with unlabeled (cold) BB-1
# B7 antigen (human) [8] = target: B7 antigen (human) (UniProt P33681); test: direct immunofluorescence flow cytometry, Jijoye cells, after preincubation with unlabeled (cold) BB-1
# B7 antigen (human) [9] = target: B7 antigen (human) (UniProt P33681); test: direct immunofluorescence flow cytometry, T51 B-lymphoblastoid cells, no unlabeled BB-1
# B7 antigen (human) [10] = target: B7 antigen (human) (UniProt P33681); test: direct immunofluorescence flow cytometry, Jijoye Burkitt's lymphoma cells, no unlabeled BB-1
# B7 antigen (human) [11] = target: B7 antigen (human) (UniProt P33681); test: direct immunofluorescence flow cytometry, 5E1 B-lymphoblastoid cells, no unlabeled BB-1
# B7 antigen (human) [12] = target: B7 antigen (human) (UniProt P33681); test: direct immunofluorescence flow cytometry, 5E1 cells, after preincubation with unlabeled (cold) BB-1
# B7 antigen (human) [13] = target: B7 antigen (human) (UniProt P33681); test: cell-based or functional assay
# B7 antigen (human) [14] = target: B7 antigen (human) (UniProt P33681); test: direct immunofluorescence flow cytometry, 5E1 cells
# B7 antigen (human) [15] = target: B7 antigen (human) (UniProt P33681); test: direct immunofluorescence flow cytometry, T51 cells, after preincubation with unlabeled (cold) BB-1
# B7 antigen (human) [16] = target: B7 antigen (human) (UniProt P33681); test: direct immunofluorescence flow cytometry, Daudi cells
# B7 antigen (human), sequence (P33681 35-288): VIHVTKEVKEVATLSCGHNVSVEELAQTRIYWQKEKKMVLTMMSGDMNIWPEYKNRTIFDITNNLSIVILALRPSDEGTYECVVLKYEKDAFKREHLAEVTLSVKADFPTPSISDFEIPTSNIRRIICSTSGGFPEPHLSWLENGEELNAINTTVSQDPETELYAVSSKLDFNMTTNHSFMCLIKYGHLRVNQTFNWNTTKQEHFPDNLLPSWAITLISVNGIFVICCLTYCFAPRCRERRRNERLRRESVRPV
substance,measurement,setting,value
mAb 9.3 (Fab fragments),"[^3H]-T incorporation of PHA blasts stimulated with B7+ CHO (40:1), 9.3 Fab at 10 µg/ml",CD28 receptor (human),132000 cpm
mAb BB-1 (anti-B7) (antibody),"mean fluorescence (linear units), FITC-BB-1 -COLD",B7 antigen (human) [1],6.4 linear units
same,"SPECIFIC BINDING (mean fluorescence, -cold minus +cold)",B7 antigen (human) [2],15 linear units
same,"mean fluorescence (linear units), FITC-BB-1 +COLD",B7 antigen (human) [3],2.8 linear units
same,"SPECIFIC BINDING (mean fluorescence, -cold minus +cold)",B7 antigen (human) [4],13.4 linear units
same,"SPECIFIC BINDING (mean fluorescence, -cold minus +cold)",B7 antigen (human) [5],4.3 linear units
same,"mean fluorescence (linear units), FITC-BB-1 -COLD",B7 antigen (human) [6],7.1 linear units
same,"mean fluorescence (linear units), FITC-BB-1 +COLD",B7 antigen (human) [7],2.8 linear units
same,"mean fluorescence (linear units), FITC-BB-1 +COLD",B7 antigen (human) [8],2.8 linear units
same,"mean fluorescence (linear units), FITC-BB-1 -COLD",B7 antigen (human) [9],16.4 linear units
same,"mean fluorescence (linear units), FITC-BB-1 -COLD",B7 antigen (human) [10],17.8 linear units
same,"mean fluorescence (linear units), FITC-BB-1 -COLD",B7 antigen (human) [11],13 linear units
same,"mean fluorescence (linear units), FITC-BB-1 +COLD",B7 antigen (human) [12],2.4 linear units
same,"[^3H]-T incorporation of PHA blasts stimulated with B7+ CHO (40:1), BB-1 at 10 µg/ml",B7 antigen (human) [13],98300 cpm
same,"blocking of adhesion of Jijoye cells to CD28+ CHO cells, 10 mM EDTA",B7 antigen (human) [13],60%
same,"SPECIFIC BINDING (mean fluorescence, -cold minus +cold)",B7 antigen (human) [14],10.6 linear units
same,"mean fluorescence (linear units), FITC-BB-1 +COLD",B7 antigen (human) [15],3 linear units
same,"SPECIFIC BINDING (mean fluorescence, -cold minus +cold)",B7 antigen (human) [16],3.6 linear units
monoclonal antibody (mAb) 9.3 (anti-CD28),"[^3H]-T incorporation of PBL, +Anti-CD3, mAb 9.3 (immob.), Exp. 1",CD28 receptor (human),137000 cpm
same,"[^3H]-T incorporation of PBL, +Anti-CD3, mAb 9.3 (soln.), Exp. 1",CD28 receptor (human),156000 cpm
same,"[^3H]-T incorporation of PBL, +Anti-CD3, mAb 9.3 (soln.), Exp. 2",CD28 receptor (human),75800 cpm
same,"[^3H]-T incorporation of PBL, -Anti-CD3, mAb 9.3 (immob.), Exp. 1",CD28 receptor (human),100 cpm
same,"[^3H]-T incorporation of PBL, -Anti-CD3, mAb 9.3 (soln.), Exp. 1",CD28 receptor (human),300 cpm
same,"[^3H]-T incorporation of PBL, -Anti-CD3, mAb 9.3 (soln.), Exp. 2",CD28 receptor (human),400 cpm
same,"blocking of adhesion of B7 transfected COS cells to CD28+ CHO cells, EDTA omitted",CD28 receptor (human),40%
same,half-maximal inhibition of CD28-mediated adhesion (PM cells to CD28+ CHO),CD28 receptor (human),10 nM
same,reduction of T51 cell adhesion to CD28+ CHO cells by mAb 9.3 alone (no EDTA),CD28 receptor (human),62%
same,reduction of T51 cell adhesion to CD28+ CHO cells by mAb 9.3 plus EDTA,CD28 receptor (human),93%
